Experimental data from article PMC11538452 (Nature Communications, 2024).
Numbering of substitutions follows the chain as printed. Like-named read-outs stand apart in the source and are kept apart here.

What was measured:
[1] = target: T1, human CD40-Fc (human, UniProt P25942); test: SPR; wildtype against deimmunized variant on the CD40 protein (Supplementary Fig. 3B); format of this experiment not told in what was shown; conditions: both partners purified
T1 construct: also called hCD40-Fc

[2] = target: T2, pTag9aa (free, without cargo) (Clostridium tetani, tetanus …)
[3] = target: T3, pTag_(18aa) (original 18 amino acid peptide tag) (Clostridium tetani, tetanus …)
[4] = target: pTag_(12aa) (Clostridium tetani, tetanus …); test: SPR; […]; 25 °C, HBS with 0.05% Tween20, pH 7.5; Biacore T200, 1:1 Langmuir model; conditions: both partners purified
[5] = target: T2, pTag9aa (free, without cargo); test: as above; conditions: both partners purified
[6] = target: T3, pTag_(18aa) (original 18 amino acid …); test: as above; conditions: both partners purified

T1 sequence (P25942 21-193): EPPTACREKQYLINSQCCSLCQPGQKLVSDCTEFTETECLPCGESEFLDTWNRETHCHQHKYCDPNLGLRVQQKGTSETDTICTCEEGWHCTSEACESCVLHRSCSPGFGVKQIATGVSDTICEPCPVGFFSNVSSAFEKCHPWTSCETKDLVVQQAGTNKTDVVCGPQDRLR

B1: A9 anti-CD40 antibody, wildtype variant (before deimmunization) (antibody, V domains shown)
VH: EVQLLESGGGLVQPGGSLRLSCAASGFTFSSYAMSWVRQAPGKGLEWVSGISGYSGSTYYADSVKGRFTISRDNSKNTLYLQMNSLRAEDTAVYYCARYYSYYGYYYFDYWGQGTLVTVSS
VL: DIQMTQSPSSLSASVGDRVTITCRASQSISSYLNWYQQKPGKAPKLLIYAASSLQSGVPSRFSGSGSGTDFTLTISSLQPEDFATYYCQQGYPYPFTFGQGTKLEIK
notes: also called WT; original variant
- Kd [1]: 3.4 nM

B2: BiA9*2_HF (antibody, V domains shown)
VH: QVQLVQSGAEVKKPGASVKVSCKASGFNIKDFNIHWVRQAPGQGLEWIGRIDPENGDAEYVPKFQGRVTMTRDTSTSTVYMELSSLRSEDTAVYYCTTGSYDLDVEYWGQGTLVTVSS
VL: DIQMTQSPSSLSASVGDRVTITCHASQNINVWLSWYQQKPGKAPKLLIYKASTLHTGVPSRFSGSGSGTDFTLTISSLQPEDFATYYCQQGQSYPLTFGQGTKLEIK
- binding result [2]: binds
- binding result [3]: binds

B3:  (scFv, V domains shown)
VH: B2 VH with N55S
VL: B2 VL
notes: also called humanized scFv; humanized single chain clone SG; source: E. coli, purified (Ni-NTA)
- binding result [4]: binds
- binding result [5]: binds
- binding result [6]: binds

B4: murine anti-pTag scFv (scFv, V domains shown)
VH: EVRLLQSGAALVRPGASVKLSCTASGFNIKDFNIHWVKQRPEQGLEWIGRIDPENGDAEYVPKFQVRATMTTDTSSNTVYLHLSSLTSGDTAVYYCTTGSYDLDVEYWGQGTTLTVSS
VL: ELQMTQSPSSLSASLGDTVTITCHASQNINVWLSWYQQRPGNIPKLLIYKASTLHTGVPSRFRGSGSGTGFTLTISSLQPEDIATYYCQQGQSYPLTFGAGTKLELK
notes: also called murine scFv; mscFv
- binding result [4]: binds
- Kd [6]: 4 nM
